First the molecules themselves.
T1: EsCas13d, nuclease-dead (Eubacterium siraeum, UniProt B0MS50, R295A;H300A;R849A;H854A)
T1 sequence: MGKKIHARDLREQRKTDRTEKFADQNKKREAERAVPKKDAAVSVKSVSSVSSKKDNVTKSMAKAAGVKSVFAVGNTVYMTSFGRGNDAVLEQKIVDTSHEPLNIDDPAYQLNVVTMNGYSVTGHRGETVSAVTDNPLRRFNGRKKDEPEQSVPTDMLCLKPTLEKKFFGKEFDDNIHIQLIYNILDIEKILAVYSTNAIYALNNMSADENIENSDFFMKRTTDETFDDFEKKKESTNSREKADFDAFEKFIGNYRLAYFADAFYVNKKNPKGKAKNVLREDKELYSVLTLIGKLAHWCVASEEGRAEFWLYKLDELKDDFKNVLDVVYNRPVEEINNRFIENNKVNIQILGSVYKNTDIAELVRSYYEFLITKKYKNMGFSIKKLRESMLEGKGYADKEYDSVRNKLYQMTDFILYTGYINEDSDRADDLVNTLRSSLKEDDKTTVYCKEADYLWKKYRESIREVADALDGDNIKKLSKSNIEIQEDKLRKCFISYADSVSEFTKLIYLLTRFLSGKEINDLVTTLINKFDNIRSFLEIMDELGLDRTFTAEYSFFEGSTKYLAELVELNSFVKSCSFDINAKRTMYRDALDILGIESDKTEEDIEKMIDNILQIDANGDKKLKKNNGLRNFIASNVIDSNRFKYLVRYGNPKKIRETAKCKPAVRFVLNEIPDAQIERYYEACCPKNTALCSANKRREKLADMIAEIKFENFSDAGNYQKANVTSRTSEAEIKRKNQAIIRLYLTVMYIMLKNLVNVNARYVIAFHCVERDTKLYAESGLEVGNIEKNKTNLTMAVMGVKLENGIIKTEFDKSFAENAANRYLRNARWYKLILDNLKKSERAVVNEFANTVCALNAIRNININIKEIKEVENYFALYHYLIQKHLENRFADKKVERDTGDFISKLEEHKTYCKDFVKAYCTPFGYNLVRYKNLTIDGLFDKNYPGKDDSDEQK

B1: target 1 insG 3' of 19,insU 3' of 2 (mixed)
RNA 1: CACCCGUGCAAAAAUGCAGGGGUCUAAAACUGAGCGGAUAACCUCUCUAUGG
RNA 2: GGGAAUGGAUCCACAUCUACGAAUUCGUACCAUGAGAGAGGUUAUCCGCUCUACCGAGAUCGGAAGAGCACACGU
B2: target 1 insC 3' of 15,insA 3' of 11 (mixed)
RNA 1: CACCCGUGCAAAAAUGCAGGGGUCUAAAACUGAGCGGAUAACCUCUCUAUGG
RNA 2: GGGAAUGGAUCCACAUCUACGAAUUCGUACCAUAGAGCAGGUAUAUCCGCUCACCGAGAUCGGAAGAGCACACGU
B3: target 1 insA 3' of 21,insU 3' of 1 (mixed)
RNA 1: CACCCGUGCAAAAAUGCAGGGGUCUAAAACUGAGCGGAUAACCUCUCUAUGG
RNA 2: GGGAAUGGAUCCACAUCUACGAAUUCGUACCAAUAGAGAGGUUAUCCGCUCAUCCGAGAUCGGAAGAGCACACGU
B4: target 1 C4G,G5C (mixed)
RNA 1: CACCCGUGCAAAAAUGCAGGGGUCUAAAACUGAGCGGAUAACCUCUCUAUGG
RNA 2: GGGAAUGGAUCCACAUCUACGAAUUCGUACCAUAGAGAGGUUAUCCCGUCACCGAGAUCGGAAGAGCACACGU
B5: target 1 del5,del11 (mixed)
RNA 1: CACCCGUGCAAAAAUGCAGGGGUCUAAAACUGAGCGGAUAACCUCUCUAUGG
RNA 2: GGGAAUGGAUCCACAUCUACGAAUUCGUACCAUAGAGAGGUAUCCCUCACCGAGAUCGGAAGAGCACACGU
B6: target 1 G5A,A16C (mixed)
RNA 1: CACCCGUGCAAAAAUGCAGGGGUCUAAAACUGAGCGGAUAACCUCUCUAUGG
RNA 2: GGGAAUGGAUCCACAUCUACGAAUUCGUACCAUAGCGAGGUUAUCCACUCACCGAGAUCGGAAGAGCACACGU
B7: target 1 insG 3' of 22,insG 3' of 2 (mixed)
RNA 1: CACCCGUGCAAAAAUGCAGGGGUCUAAAACUGAGCGGAUAACCUCUCUAUGG
RNA 2: GGGAAUGGAUCCACAUCUACGAAUUCGUACGCAUAGAGAGGUUAUCCGCUCGACCGAGAUCGGAAGAGCACACGU
B8: target 1 insU 3' of 20,insU 3' of 14 (mixed)
RNA 1: CACCCGUGCAAAAAUGCAGGGGUCUAAAACUGAGCGGAUAACCUCUCUAUGG
RNA 2: GGGAAUGGAUCCACAUCUACGAAUUCGUACCAUUAGAGAUGGUUAUCCGCUCACCGAGAUCGGAAGAGCACACGU
B9: target 1 insU 3' of 21,insU 3' of 18 (mixed)
RNA 1: CACCCGUGCAAAAAUGCAGGGGUCUAAAACUGAGCGGAUAACCUCUCUAUGG
RNA 2: GGGAAUGGAUCCACAUCUACGAAUUCGUACCUAUAUGAGAGGUUAUCCGCUCACCGAGAUCGGAAGAGCACACGU
B10: target 1 G12C,A14C (mixed)
RNA 1: CACCCGUGCAAAAAUGCAGGGGUCUAAAACUGAGCGGAUAACCUCUCUAUGG
RNA 2: GGGAAUGGAUCCACAUCUACGAAUUCGUACCAUAGAGCGCUUAUCCGCUCACCGAGAUCGGAAGAGCACACGU
B11: target 1 C6A,U10C (mixed)
RNA 1: CACCCGUGCAAAAAUGCAGGGGUCUAAAACUGAGCGGAUAACCUCUCUAUGG
RNA 2: GGGAAUGGAUCCACAUCUACGAAUUCGUACCAUAGAGAGGUCAUCAGCUCACCGAGAUCGGAAGAGCACACGU
B12: target 1 insA 3' of 21,insA 3' of 2 (mixed)
RNA 1: CACCCGUGCAAAAAUGCAGGGGUCUAAAACUGAGCGGAUAACCUCUCUAUGG
RNA 2: GGGAAUGGAUCCACAUCUACGAAUUCGUACCAAUAGAGAGGUUAUCCGCUCAACCGAGAUCGGAAGAGCACACGU
B13: target 1 insU 3' of 22,insU 3' of 7 (mixed)
RNA 1: CACCCGUGCAAAAAUGCAGGGGUCUAAAACUGAGCGGAUAACCUCUCUAUGG
RNA 2: GGGAAUGGAUCCACAUCUACGAAUUCGUACUCAUAGAGAGGUUAUCUCGCUCACCGAGAUCGGAAGAGCACACGU
B14: target 1 insC 3' of 20,insU 3' of 20 (mixed)
RNA 1: CACCCGUGCAAAAAUGCAGGGGUCUAAAACUGAGCGGAUAACCUCUCUAUGG
RNA 2: GGGAAUGGAUCCACAUCUACGAAUUCGUACCACUUAGAGAGGUUAUCCGCUCACCGAGAUCGGAAGAGCACACGU
B15: target 1 U11C,G13A (mixed)
RNA 1: CACCCGUGCAAAAAUGCAGGGGUCUAAAACUGAGCGGAUAACCUCUCUAUGG
RNA 2: GGGAAUGGAUCCACAUCUACGAAUUCGUACCAUAGAGAAGCUAUCCGCUCACCGAGAUCGGAAGAGCACACGU
B16: target 1 insG 3' of 14,insU 3' of 4 (mixed)
RNA 1: CACCCGUGCAAAAAUGCAGGGGUCUAAAACUGAGCGGAUAACCUCUCUAUGG
RNA 2: GGGAAUGGAUCCACAUCUACGAAUUCGUACCAUAGAGAGGGUUAUCCGCUUCACCGAGAUCGGAAGAGCACACGU
B17: target 1 U11A,C22U (mixed)
RNA 1: CACCCGUGCAAAAAUGCAGGGGUCUAAAACUGAGCGGAUAACCUCUCUAUGG
RNA 2: GGGAAUGGAUCCACAUCUACGAAUUCGUAUCAUAGAGAGGAUAUCCGCUCACCGAGAUCGGAAGAGCACACGU
B18: target 1 insG 3' of 10,insA 3' of 4 (mixed)
RNA 1: CACCCGUGCAAAAAUGCAGGGGUCUAAAACUGAGCGGAUAACCUCUCUAUGG
RNA 2: GGGAAUGGAUCCACAUCUACGAAUUCGUACCAUAGAGAGGUUGAUCCGCAUCACCGAGAUCGGAAGAGCACACGU
B19: target 1 insA 3' of 21,insC 3' of 1 (mixed)
RNA 1: CACCCGUGCAAAAAUGCAGGGGUCUAAAACUGAGCGGAUAACCUCUCUAUGG
RNA 2: GGGAAUGGAUCCACAUCUACGAAUUCGUACCAAUAGAGAGGUUAUCCGCUCACCCGAGAUCGGAAGAGCACACGU
B20: target 1 insG 3' of 10,insU 3' of 2 (mixed)
RNA 1: CACCCGUGCAAAAAUGCAGGGGUCUAAAACUGAGCGGAUAACCUCUCUAUGG
RNA 2: GGGAAUGGAUCCACAUCUACGAAUUCGUACCAUAGAGAGGUUGAUCCGCUCUACCGAGAUCGGAAGAGCACACGU
B21: target 1 A9C,G12U (mixed)
RNA 1: CACCCGUGCAAAAAUGCAGGGGUCUAAAACUGAGCGGAUAACCUCUCUAUGG
RNA 2: GGGAAUGGAUCCACAUCUACGAAUUCGUACCAUAGAGAGUUUCUCCGCUCACCGAGAUCGGAAGAGCACACGU
B22: target 1 C2A,U11G (mixed)
RNA 1: CACCCGUGCAAAAAUGCAGGGGUCUAAAACUGAGCGGAUAACCUCUCUAUGG
RNA 2: GGGAAUGGAUCCACAUCUACGAAUUCGUACCAUAGAGAGGGUAUCCGCUAACCGAGAUCGGAAGAGCACACGU
B23: target 1 insC 3' of 20,insG 3' of 16 (mixed)
RNA 1: CACCCGUGCAAAAAUGCAGGGGUCUAAAACUGAGCGGAUAACCUCUCUAUGG
RNA 2: GGGAAUGGAUCCACAUCUACGAAUUCGUACCACUAGAGGAGGUUAUCCGCUCACCGAGAUCGGAAGAGCACACGU
B24: target 1 insC 3' of 20,insA 3' of 6 (mixed)
RNA 1: CACCCGUGCAAAAAUGCAGGGGUCUAAAACUGAGCGGAUAACCUCUCUAUGG
RNA 2: GGGAAUGGAUCCACAUCUACGAAUUCGUACCACUAGAGAGGUUAUCCAGCUCACCGAGAUCGGAAGAGCACACGU
B25: target 1 insA 3' of 22,insU 3' of 22 (mixed)
RNA 1: CACCCGUGCAAAAAUGCAGGGGUCUAAAACUGAGCGGAUAACCUCUCUAUGG
RNA 2: GGGAAUGGAUCCACAUCUACGAAUUCGUACAUCAUAGAGAGGUUAUCCGCUCACCGAGAUCGGAAGAGCACACGU
B26: target 1 insC 3' of 15,insU 3' of 12 (mixed)
RNA 1: CACCCGUGCAAAAAUGCAGGGGUCUAAAACUGAGCGGAUAACCUCUCUAUGG
RNA 2: GGGAAUGGAUCCACAUCUACGAAUUCGUACCAUAGAGCAGGUUUAUCCGCUCACCGAGAUCGGAAGAGCACACGU
B27: target 1 U8A,U11C (mixed)
RNA 1: CACCCGUGCAAAAAUGCAGGGGUCUAAAACUGAGCGGAUAACCUCUCUAUGG
RNA 2: GGGAAUGGAUCCACAUCUACGAAUUCGUACCAUAGAGAGGCUAACCGCUCACCGAGAUCGGAAGAGCACACGU

For the series, the target named is T1, EsCas13d, nuclease-dead. Nature of the series: crRNA (strand 1, pre-loaded); Mg2+; 40 mM Tris-HCl pH 7.5, 150 mM NaCl, 6 mM MgCl2, 1 mM DTT, 0.1% Tween-20, 0.2 mg/ml BSA; 25 C; 10 min per concentration, then washed. The settings on record: tags: His6-TwinStrep-SUMO cleaved; N-terminal SNAP kept (SNAP-Surface 488); label: 3' end held by stalled T7 RNA polymerase.
As to B1, binding was characterised by a dissociation constant (Kd) of 57 ± 13 nM.

For B2, the equilibrium dissociation constant (Kd) (in general, the constant that tells how readily two partners part at equilibrium) is 79 ± 18 nM.

Molecule B3 came in with a Kd of 18.5 ± 1.3 nM.

B4 came in with a Kd of 15.7 ± 1 nM.

For B5, the Kd was determined as 30 ± 1.5 nM.

Regarding B6, the affinity, expressed as Kd, was 57 ± 12 nM.

For the molecule B7, the Kd was 38 ± 5 nM.

Regarding B8, the Kd is 53 ± 21 nM.

In the case of B9, binding was characterised by a dissociation constant (Kd) of 52 ± 5 nM.

With B10, binding was characterised by a dissociation constant (Kd) of 89 ± 33 nM.

As to B11, the Kd is 18.8 ± 1.4 nM. Compared with the last molecule, the Kd is about 4.7-fold lower.

B12 showed a dissociation constant Kd of 17.7 ± 1 nM.

Molecule B13 returned a Kd of 43 ± 4 nM.

B14 yielded a dissociation constant Kd of 18.3 ± 0.9 nM.

Molecule B15 had a Kd of 8.7 ± 1.3 nM.

B16 had a Kd of 11.7 ± 1.1 nM.

Consider B17, for which the Kd was 52 ± 16 nM.

B18 registered a dissociation constant (Kd) of 35 ± 5 nM.

B19 had a Kd of 13.7 ± 0.7 nM. This Kd lies about 2.6-fold lower than the previous one.

The molecule B20 returned a dissociation constant Kd of 24.7 ± 1.7 nM.

B21 returned a Kd of 19.3 ± 1.2 nM.

For the molecule B22, the Kd came to 16.6 ± 1 nM. The Kd values of the last two molecules are within 1.5-fold of each other.

Turning to B23, binding was put at a Kd of 11.8 ± 0.9 nM.

As to B24, the Kd stood at 11.1 ± 0.6 nM.

The molecule B25 had an equilibrium dissociation constant (Kd) of 12.5 ± 1 nM.

B26 came in with a dissociation constant (Kd) of 14.6 ± 0.9 nM. This Kd and that of the molecule before are within 1.5-fold of each other.

B27 gave a dissociation constant (Kd) of 12.6 ± 0.9 nM. The Kd values of the last two molecules are within 1.5-fold of each other.

The values above are taken from PMC10786891, “Massively parallel profiling of RNA-targeting CRISPR-Cas13d”.
